US20250043302A1, “MUTATED HYDROXYPHENYLPYRUVATE DIOXYGENASE POLYPEPTIDE, AND CODING GENE AND USE THEREOF” (BEIJING DABEINONG BIOTECHNOLOGY CO., LTD., priority 2021, published 2025)

Tests used:
Assay type in all cases: in vivo
[1] = test system: Arabidopsis thaliana T1 plants; experiment: Topramezone tolerance of transgenic Arabidopsis thaliana T1 plants (spray, bleached leaf area grade, damage score); settings: 7 DAT, Table 4; for Classification and statistics of the grade of pesticide damage: Grade 0 / Classification and statistics of the grade of pesticide damage: Grade 1 / Classification and statistics of the grade of pesticide damage: Grade 2 / Classification and statistics of the grade of pesticide damage: Grade 3: number of plants; for Scores: pesticide damage score 0-100
Procedure, shortened: (§1)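 T1 transformants selected by glufosinate; 18-day-old plants, with empty-vector and wild-type controls, sprayed with topramezone (25–200 g ai/ha), isoxaflutole (35–280 g ai/ha) or mesotrione (52.5–420 g ai/ha), water as 0×. Bleached leaf area fraction scored at 7 DAT as grades 0–3.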

[2] = test system: Arabidopsis thaliana T1 plants; experiment: Isoxaflutole tolerance of transgenic Arabidopsis thaliana T1 plants (spray, bleached leaf area grade, damage score); parameters: Scores (pesticide damage): scale not given here; settings: spray, Arabidopsis thaliana T1 plants; for Classification and statistics of the grade of pesticide damage: Grade 0 (number of plants) / Classification and statistics of the grade of pesticide damage: Grade 1 (number of plants) / Classification and statistics of the grade of pesticide damage: Grade 2 (number of plants) / Classification and statistics of the grade of pesticide damage: Grade 3 (number of plants): 16 plants
Procedure, shortened: as §1

[3] = test system: Arabidopsis thaliana T1 plants; experiment: Mesotrione tolerance of transgenic Arabidopsis thaliana T1 plants (spray, bleached leaf area grade, damage score); parameters: Scores: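 damage score 0-100 computed as Σ(N×S)/(T×M)×100 over grades 0-3 with higher meaning more damage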; settings: Arabidopsis thaliana T1 plants; for Grade 0 (classification and statistics of the grade of pesticide damage; number of plants) / Grade 1 (classification and statistics of the grade of pesticide damage; number of plants) / Grade 2 (classification and statistics of the grade of pesticide damage; number of plants) / Grade 3 (classification and statistics of the grade of pesticide damage; number of plants): 16 plants
Procedure, shortened: as §1

[4] = isoxaflutole 35 g ai/ha (0.5x field concentration)
[5] = isoxaflutole 70 g ai/ha (1x field concentration)

Row | Molecule | Classification and statistics of the grade of pesticide damage: Grade 0 ([1]; topramezone 25 g ai/ha (1×)) | Classification and statistics of the grade of pesticide damage: Grade 1 ([1]; topramezone 25 g ai/ha (1×)) | Classification and statistics of the grade of pesticide damage: Grade 2 ([1]; topramezone 25 g ai/ha (1×)) | Classification and statistics of the grade of pesticide damage: Grade 3 ([1]; topramezone 25 g ai/ha (1×)) | Classification and statistics of the grade of pesticide damage: Grade 0 ([1]; topramezone 100 g ai/ha (4×)) | Classification and statistics of the grade of pesticide damage: Grade 1 ([1]; topramezone 100 g ai/ha (4×)) | Classification and statistics of the grade of pesticide damage: Grade 2 ([1]; topramezone 100 g ai/ha (4×)) | Classification and statistics of the grade of pesticide damage: Grade 3 ([1]; topramezone 100 g ai/ha (4×)) | Scores ([1]; topramezone 25 g ai/ha (1×)) | Scores ([1]; topramezone 100 g ai/ha (4×)) | Resistance evaluation ([1]; topramezone 25 g ai/ha (1×)) | Resistance evaluation ([1]; topramezone 100 g ai/ha (4×)) | Resistance evaluation [2, 4] | Scores (pesticide damage) [2, 4] | Classification and statistics of the grade of pesticide damage: Grade 0 (number of plants) [2, 4] | Classification and statistics of the grade of pesticide damage: Grade 1 (number of plants) [2, 4] | Classification and statistics of the grade of pesticide damage: Grade 2 (number of plants) [2, 4] | Classification and statistics of the grade of pesticide damage: Grade 3 (number of plants) [2, 4] | Resistance evaluation [2, 5] | Scores (pesticide damage) [2, 5] | further results
1 | OsHPPDm-F372A-F383W-02: nucleotide sequence encoding Oryza sativa HPPD with F372A+F383W; vector DBN11757 (nucleic acid, OsHPPDm-F372A-F383W-02 Nucleotide Sequence, vector DBN11757) DNA: ATGCCACCCACGCCAACACCAACGGCCACCACTGGTGCCGTCTCGGCCGCGGCAGCGGCCGGTGAGAATGCTGGTTTCAGGCTAGTCGGCCACCGCCGCTTCGTGAGGGCAAATCCAAGATCTGATCGGTTCCAAGCACTTGCTTTCCACCATGTTGAGCTGTGGTGCGCTGACGCCGCTTCAGCTGCCGGGAGGTTTGCTTTTGCTTTAGGGGCGCCGCTCGCCGCAAGGAGTGATCTTTCCACCGGAAATTCTGCTCATGCTTCTCTTCTACTTAGATCAGCAAGTGTTGCATTTCTGTTCACTGCACCTTATGGCGGAGACCATGGTGTCGGGGCCGATGCTGCAACAACAGCTAGCATACCATCATTTTCTCCCGGCGCCGCAAGAAGATTTGCAGCCGATCATGGCCTGGCAGTTCATGCTGTGGCATTGAGGGTCGCCGACGCGGCTGATGCGTTCCGCGCCAGCGTGGCTGCTGGAGCTAGGCCGGCGTTCCAGCCTGCTGACCTTGGGGGTGGATTTGGATTGGCGGAGGTTGAATTATATGGTGATGTTGTGCTCCGTTTTGTTTCCCATCCAGATGGTGCTGATGCTCCATTTCTACCTGGATTTGAAGGGGTGTCAAACCCCGGCGCGGTGGATTATGGACTGCGTCGATTTGATCACGTGGTAGGTAATGTTCCTGAGTTGGCTCCCGTGGCGGCCTACATTTCAGGCTTTACTGGCTTCCATGAATTTGCCGAGTTCACCGCGGAAGATGTGGGAACTGCTGAAAGTGGATTGAACTCTGTTGTCCTGGCGAACAATGCAGAGACTGTATTGCTCCCCTTGAATGAGCCTGTGCACGGCACCAAACGGCGATCTCAAATTCAGACATACCTCGACCACCACGGGGGCCCTGGTGTTCAGCATATTGCTCTAGCCAGCGACGACGTACTGGGAACACTGAGGGAGATGAGAGCCCGTTCCGCCATGGGTGGCTTTGAGTTTCTGGCCCCTCCGCCGCCAAACTACTACGACGGCGTCAGACGGCGGGCGGGTGACGTCTTGAGTGAGGAGCAGATCAATGAATGTCAAGAACTTGGGGTTCTTGTTGATAGAGATGATCAAGGAGTGCTCCTCCAAATAGCCACAAAACCTGTTGGCGACCGCCCGACCTTCTGGCTTGAAATGATCCAAAGGATCGGCTGCATGGAGAAGGATGAATCGGGCCAGGAGTACCAGAAGGGTGGGTGTGGTGGCTTTGGGAAGGGCAACTTCAGCGAGCTGTTCAAGTCAATTGAAGAATATGAAAAATCATTGGAGGCAAAGCAAGCTCCGACGGTGCAGGGAAGCTGA | 10 | 6 | 0 | 0 | 2 | 13 | 1 | 0 | 13 | 31 | highly | moderately | Highly | 10 | 11 | 5 | 0 | 0 | Highly | 15 | Classification and statistics of the grade of pesticide damage: Grade 0 (number of plants) [2, 5]: 9; Classification and statistics of the grade of pesticide damage: Grade 1 (number of plants) [2, 5]: 7; Classification and statistics of the grade of pesticide damage: Grade 2 (number of plants) [2, 5]: 0; Classification and statistics of the grade of pesticide damage: Grade 3 (number of plants) [2, 5]: 0; Resistance evaluation ([3]; mesotrione 52.5 g ai/ha): Highly resistant; Scores ([3]; mesotrione 52.5 g ai/ha): 15; Grade 0 (classification and statistics of the grade of pesticide damage; number of plants) ([3]; mesotrione 52.5 g ai/ha): 9; Grade 1 (classification and statistics of the grade of pesticide damage; number of plants) ([3]; mesotrione 52.5 g ai/ha): 7; Grade 2 (classification and statistics of the grade of pesticide damage; number of plants) ([3]; mesotrione 52.5 g ai/ha): 0; Grade 3 (classification and statistics of the grade of pesticide damage; number of plants) ([3]; mesotrione 52.5 g ai/ha): 0; Resistance evaluation ([3]; mesotrione 105 g ai/ha): Poorly resistant; Scores ([3]; mesotrione 105 g ai/ha): 38; Grade 0 (classification and statistics of the grade of pesticide damage; number of plants) ([3]; mesotrione 105 g ai/ha): 0; Grade 1 (classification and statistics of the grade of pesticide damage; number of plants) ([3]; mesotrione 105 g ai/ha): 14; Grade 2 (classification and statistics of the grade of pesticide damage; number of plants) ([3]; mesotrione 105 g ai/ha): 2; Grade 3 (classification and statistics of the grade of pesticide damage; number of plants) ([3]; mesotrione 105 g ai/ha): 0
2 | OsHPPDm-F372A-02: nucleotide sequence encoding Oryza sativa HPPD with F372A; vector DBN11755 (nucleic acid, OsHPPDm-F372A-02 Nucleotide Sequence, vector DBN11755) DNA: ATGCCACCCACGCCAACACCAACGGCCACCACTGGTGCCGTCTCGGCCGCGGCAGCGGCCGGTGAGAATGCTGGTTTCAGGCTAGTCGGCCACCGCCGCTTCGTGAGGGCAAATCCAAGATCTGATCGGTTCCAAGCACTTGCTTTCCACCATGTTGAGCTGTGGTGCGCTGACGCCGCTTCAGCTGCCGGGAGGTTTGCTTTTGCTTTAGGGGCGCCGCTCGCCGCAAGGAGTGATCTTTCCACCGGAAATTCTGCTCATGCTTCTCTTCTACTTAGATCAGCAAGTGTTGCATTTCTGTTCACTGCACCTTATGGCGGAGACCATGGTGTCGGGGCCGATGCTGCAACAACAGCTAGCATACCATCATTTTCTCCCGGCGCCGCAAGAAGATTTGCAGCCGATCATGGCCTGGCAGTTCATGCTGTGGCATTGAGGGTCGCCGACGCGGCTGATGCGTTCCGCGCCAGCGTGGCTGCTGGAGCTAGGCCGGCGTTCCAGCCTGCTGACCTTGGGGGTGGATTTGGATTGGCGGAGGTTGAATTATATGGTGATGTTGTGCTCCGTTTTGTTTCCCATCCAGATGGTGCTGATGCTCCATTTCTACCTGGATTTGAAGGGGTGTCAAACCCCGGCGCGGTGGATTATGGACTGCGTCGATTTGATCACGTGGTAGGTAATGTTCCTGAGTTGGCTCCCGTGGCGGCCTACATTTCAGGCTTTACTGGCTTCCATGAATTTGCCGAGTTCACCGCGGAAGATGTGGGAACTGCTGAAAGTGGATTGAACTCTGTTGTCCTGGCGAACAATGCAGAGACTGTATTGCTCCCCTTGAATGAGCCTGTGCACGGCACCAAACGGCGATCTCAAATTCAGACATACCTCGACCACCACGGGGGCCCTGGTGTTCAGCATATTGCTCTAGCCAGCGACGACGTACTGGGAACACTGAGGGAGATGAGAGCCCGTTCCGCCATGGGTGGCTTTGAGTTTCTGGCCCCTCCGCCGCCAAACTACTACGACGGCGTCAGACGGCGGGCGGGTGACGTCTTGAGTGAGGAGCAGATCAATGAATGTCAAGAACTTGGGGTTCTTGTTGATAGAGATGATCAAGGAGTGCTCCTCCAAATAGCCACAAAACCTGTTGGCGACCGCCCGACCTTCTTCCTTGAAATGATCCAAAGGATCGGCTGCATGGAGAAGGATGAATCGGGCCAGGAGTACCAGAAGGGTGGGTGTGGTGGCTTTGGGAAGGGCAACTTCAGCGAGCTGTTCAAGTCAATTGAAGAATATGAAAAATCATTGGAGGCAAAGCAAGCTCCGACGGTGCAGGGAAGCTGA | 8 | 8 | 0 | 0 | 0 | 0 | 0 | 16 | 17 | 100 | moderately | non-resistant (non-resistant plants (scores 68-100)) | Poorly | 52 | 0 | 8 | 7 | 1 | Non-resistant | 100 | Classification and statistics of the grade of pesticide damage: Grade 0 (number of plants) [2, 5]: 0; Classification and statistics of the grade of pesticide damage: Grade 1 (number of plants) [2, 5]: 0; Classification and statistics of the grade of pesticide damage: Grade 2 (number of plants) [2, 5]: 0; Classification and statistics of the grade of pesticide damage: Grade 3 (number of plants) [2, 5]: 16; Resistance evaluation ([3]; mesotrione 52.5 g ai/ha): Poorly resistant; Scores ([3]; mesotrione 52.5 g ai/ha): 63; Grade 0 (classification and statistics of the grade of pesticide damage; number of plants) ([3]; mesotrione 52.5 g ai/ha): 0; Grade 1 (classification and statistics of the grade of pesticide damage; number of plants) ([3]; mesotrione 52.5 g ai/ha): 5; Grade 2 (classification and statistics of the grade of pesticide damage; number of plants) ([3]; mesotrione 52.5 g ai/ha): 8; Grade 3 (classification and statistics of the grade of pesticide damage; number of plants) ([3]; mesotrione 52.5 g ai/ha): 3; Resistance evaluation ([3]; mesotrione 105 g ai/ha): Non-resistant; Scores ([3]; mesotrione 105 g ai/ha): 100; Grade 0 (classification and statistics of the grade of pesticide damage; number of plants) ([3]; mesotrione 105 g ai/ha): 0; Grade 1 (classification and statistics of the grade of pesticide damage; number of plants) ([3]; mesotrione 105 g ai/ha): 0; Grade 2 (classification and statistics of the grade of pesticide damage; number of plants) ([3]; mesotrione 105 g ai/ha): 0; Grade 3 (classification and statistics of the grade of pesticide damage; number of plants) ([3]; mesotrione 105 g ai/ha): 16
